Blank lines part the entries; values can stand above or below the binder they belong to.
Tests used:
Assay in all cases: affinity purification with mass spectrometry
Nup49 = Nup49 (Saccharomyces cerevisiae (strain ATCC …, UniProt Q02199))
Nsp1 = Nsp1 (Saccharomyces cerevisiae (strain ATCC …, UniProt P14907))
Nic96 = Nic96 (Saccharomyces cerevisiae, UniProt P34077)
Pom152 = Pom152 (Saccharomyces cerevisiae (strain ATCC …, UniProt P39685))
Nup57 = Nup57 (Saccharomyces cerevisiae (strain ATCC …, UniProt P48837))
Nup192 = Nup192 (Saccharomyces cerevisiae (strain ATCC …, UniProt P47054))
Pom34-ZZ = Pom34-ZZ (Saccharomyces cerevisiae (strain ATCC …, UniProt Q12445))
Pom34-ZZ (Saccharomyces cerevisiae, sequence (Q12445 whole entry): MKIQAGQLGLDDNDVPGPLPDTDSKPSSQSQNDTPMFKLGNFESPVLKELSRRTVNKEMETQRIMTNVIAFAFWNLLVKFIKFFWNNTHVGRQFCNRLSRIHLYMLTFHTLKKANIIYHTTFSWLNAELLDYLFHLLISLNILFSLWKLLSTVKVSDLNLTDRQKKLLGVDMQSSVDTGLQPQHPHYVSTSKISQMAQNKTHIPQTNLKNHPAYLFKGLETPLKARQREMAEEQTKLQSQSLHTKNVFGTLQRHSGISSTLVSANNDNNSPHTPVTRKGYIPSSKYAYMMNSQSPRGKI

Nup49 (Saccharomyces cerevisiae, sequence (Q02199 whole entry): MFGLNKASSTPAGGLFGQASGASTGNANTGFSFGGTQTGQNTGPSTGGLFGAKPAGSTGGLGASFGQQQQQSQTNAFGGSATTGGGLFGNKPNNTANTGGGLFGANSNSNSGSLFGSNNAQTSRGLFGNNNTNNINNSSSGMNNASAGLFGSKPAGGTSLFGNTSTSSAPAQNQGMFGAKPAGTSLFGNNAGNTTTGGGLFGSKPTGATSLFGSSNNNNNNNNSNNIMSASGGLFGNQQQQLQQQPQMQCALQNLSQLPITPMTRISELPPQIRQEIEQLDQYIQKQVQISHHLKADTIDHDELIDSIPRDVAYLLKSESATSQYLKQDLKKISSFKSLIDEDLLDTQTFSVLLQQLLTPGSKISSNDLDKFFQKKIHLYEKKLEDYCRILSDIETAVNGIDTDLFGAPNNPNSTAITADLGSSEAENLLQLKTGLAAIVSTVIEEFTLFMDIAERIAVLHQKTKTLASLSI
Nup57 (Saccharomyces cerevisiae, sequence (P48837 whole entry): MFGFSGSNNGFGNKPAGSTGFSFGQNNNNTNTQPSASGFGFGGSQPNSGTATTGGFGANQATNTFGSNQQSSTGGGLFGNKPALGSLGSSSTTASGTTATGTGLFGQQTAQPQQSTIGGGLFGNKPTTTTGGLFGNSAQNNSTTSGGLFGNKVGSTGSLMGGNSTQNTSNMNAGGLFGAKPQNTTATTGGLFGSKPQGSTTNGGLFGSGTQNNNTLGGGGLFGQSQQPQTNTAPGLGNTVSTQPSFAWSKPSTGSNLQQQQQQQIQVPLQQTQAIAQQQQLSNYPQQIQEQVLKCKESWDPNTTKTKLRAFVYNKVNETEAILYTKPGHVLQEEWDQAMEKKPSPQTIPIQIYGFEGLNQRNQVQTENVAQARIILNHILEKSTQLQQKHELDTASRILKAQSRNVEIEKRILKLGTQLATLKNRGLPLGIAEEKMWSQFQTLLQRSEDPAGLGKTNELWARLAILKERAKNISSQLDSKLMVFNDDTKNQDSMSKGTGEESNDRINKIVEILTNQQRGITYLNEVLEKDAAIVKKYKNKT
Nic96, sequence (P34077 whole entry): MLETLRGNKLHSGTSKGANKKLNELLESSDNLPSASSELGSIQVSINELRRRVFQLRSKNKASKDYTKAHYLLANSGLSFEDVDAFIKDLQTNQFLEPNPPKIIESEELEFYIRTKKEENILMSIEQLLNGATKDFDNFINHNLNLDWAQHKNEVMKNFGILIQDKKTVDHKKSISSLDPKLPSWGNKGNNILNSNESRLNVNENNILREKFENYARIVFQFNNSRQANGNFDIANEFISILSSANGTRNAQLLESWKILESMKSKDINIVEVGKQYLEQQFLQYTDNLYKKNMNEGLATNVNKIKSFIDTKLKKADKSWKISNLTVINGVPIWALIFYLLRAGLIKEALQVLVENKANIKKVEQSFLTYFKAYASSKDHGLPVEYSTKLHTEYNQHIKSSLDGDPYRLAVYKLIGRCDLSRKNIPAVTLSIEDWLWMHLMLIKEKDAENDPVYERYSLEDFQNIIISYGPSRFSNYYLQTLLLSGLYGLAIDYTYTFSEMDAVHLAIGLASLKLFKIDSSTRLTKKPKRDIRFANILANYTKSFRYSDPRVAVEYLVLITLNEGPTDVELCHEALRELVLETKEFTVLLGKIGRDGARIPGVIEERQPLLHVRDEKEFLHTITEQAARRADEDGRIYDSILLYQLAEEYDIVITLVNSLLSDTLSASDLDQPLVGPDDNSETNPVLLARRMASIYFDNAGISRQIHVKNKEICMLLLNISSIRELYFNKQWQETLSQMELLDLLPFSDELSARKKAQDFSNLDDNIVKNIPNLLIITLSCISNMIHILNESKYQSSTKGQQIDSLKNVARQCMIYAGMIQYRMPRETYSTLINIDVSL
Pom152 (Saccharomyces cerevisiae, sequence (P39685 whole entry): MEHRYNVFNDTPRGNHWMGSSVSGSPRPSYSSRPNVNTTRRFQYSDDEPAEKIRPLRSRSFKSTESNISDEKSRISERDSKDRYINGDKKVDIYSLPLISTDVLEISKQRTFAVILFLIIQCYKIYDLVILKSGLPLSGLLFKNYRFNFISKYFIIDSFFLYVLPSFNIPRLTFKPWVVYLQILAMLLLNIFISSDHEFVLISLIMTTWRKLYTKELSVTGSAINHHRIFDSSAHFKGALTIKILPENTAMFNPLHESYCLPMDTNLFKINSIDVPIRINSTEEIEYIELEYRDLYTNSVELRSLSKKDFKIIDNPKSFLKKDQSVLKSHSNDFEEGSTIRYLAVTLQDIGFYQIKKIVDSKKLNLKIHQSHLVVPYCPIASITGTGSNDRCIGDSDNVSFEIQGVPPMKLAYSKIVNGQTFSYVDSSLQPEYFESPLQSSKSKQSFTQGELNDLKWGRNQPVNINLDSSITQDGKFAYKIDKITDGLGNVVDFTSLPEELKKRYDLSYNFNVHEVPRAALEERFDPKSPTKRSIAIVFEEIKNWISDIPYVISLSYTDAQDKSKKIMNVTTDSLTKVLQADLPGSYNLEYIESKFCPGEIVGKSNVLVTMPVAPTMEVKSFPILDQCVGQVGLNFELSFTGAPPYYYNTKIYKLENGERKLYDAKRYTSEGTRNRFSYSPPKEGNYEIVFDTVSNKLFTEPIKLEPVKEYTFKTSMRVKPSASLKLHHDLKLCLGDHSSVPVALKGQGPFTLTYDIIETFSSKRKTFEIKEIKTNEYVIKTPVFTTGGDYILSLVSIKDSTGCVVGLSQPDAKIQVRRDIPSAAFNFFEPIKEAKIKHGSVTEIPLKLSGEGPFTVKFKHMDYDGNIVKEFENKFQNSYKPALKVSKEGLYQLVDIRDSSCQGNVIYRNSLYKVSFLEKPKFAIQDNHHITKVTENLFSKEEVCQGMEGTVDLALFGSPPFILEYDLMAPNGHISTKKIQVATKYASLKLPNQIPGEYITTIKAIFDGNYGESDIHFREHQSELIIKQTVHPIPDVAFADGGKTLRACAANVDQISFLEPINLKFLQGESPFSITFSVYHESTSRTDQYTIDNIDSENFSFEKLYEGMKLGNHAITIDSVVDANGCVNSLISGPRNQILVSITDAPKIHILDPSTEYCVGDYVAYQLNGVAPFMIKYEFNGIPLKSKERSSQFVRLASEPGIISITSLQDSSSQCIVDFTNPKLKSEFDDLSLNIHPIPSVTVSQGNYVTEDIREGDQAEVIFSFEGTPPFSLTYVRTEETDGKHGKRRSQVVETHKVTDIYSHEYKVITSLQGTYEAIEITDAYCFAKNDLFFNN

binding result (Nup49): binds
binding result (Nsp1): binds
binding result (Nic96): binds
binding result (Pom152): binds
binding result (Nup57): binds
binding result (Nup192): binds
B1: VHH[Nic96]-ZZ (VHH)
VHH: QVQLVETGGGLVQAGGSLRLSCATSGFNFRLRTMGWYRQAPGKERELVASITSGGSTDYADSVKGRFTISRDNAKNTISLEMNSLKPDDTAVYYCNIWAPTTAAITNWGQGTQVTVSS

binding result (Pom34-ZZ): binds
B2: VHH[Nic96] (as expressed in the Pom34-ZZ strain) (VHH)
VHH: B1 VHH
